Residue numbers refer to the chain shown, from its start.
B1: hSPHK2: human sphingosine kinase type 2, polypeptide of 618 amino acids (SEQ ID NO 14) (protein)
chain: MAPPPPPLAASTPLLHGEFGSYPARGPRFALTLTSQALHIQRLRPKPEARPRGGLVPLAEVSGCCTLRSRSPSDSAAYFCIYTYPRGRRGARRRATRTFRADGAATYEENRAEAQRWATALTCLLRGLPLPGDGEITPDLLPRPPRLLLLVNPFGGRGLAWQWCKNHVLPMISEAGLSFNLIQTERQNHARELVQGLSLSEWDGIVTVSGDGLLHEVLNGLLDRPDWEEAVKMPVGILPCGSGNALAGAVNQHGGFEPALGLDLLLNCSLLLCRGGGHPLDLLSVTLASGSRCFSFLSVAWGFVSDVDIQSERFRALGSARFTLGTVLGLATLHTYRGRLSYLPATVEPASPTPAHSLPRAKSELTLTPDPAPPMAHSPLHRSVSDLPLPLPQPALASPGSPEPLPILSLNGGGPELAGDWGGAGDAPLSPDPLLSSPPGSPKAALHSPVSEGAPVIPPSSGLPLPTPDARVGASTCGPPDHLLPPLGTPLPPDWVTLEGDFVLMLAISPSHLGADLVAAPHARFDDGLVHLCWVRSGISRAALLRLFLAMERGSHFSLGCPQLGYAAARAFRLEPLTPRGVLTVDGEQVEYGPLQAQMHPGIGTLLTGPPGCPGREP
B2: mSPHK2 (Mus musculus) (protein)
chain: MAPPPLLPVAASTPILHGEFGSYPANGPRFALTLTTQALHIQRLRPKPEARPRDGLVSLDEVSGCGTLQSRSPEDTAAYFCIYTYPRGRRGGRRRATRTFRADGATTYEENRAEAQRWATALTCLLRGVPLSGDQEITPELLPRKPRLLILVNPFGGRGLAWQRCMDHVVPMISEAGLSFNLIQTERQNHARELVQGLSLSEWEGIVTVSGDGLLYEVLNGLLDRPDWEDAVRMPIGVLPCGSGNALAGAVNHHGGFEQVVGVDLLLNCSLLLCRGGSHPLDLLSVTLASGSRCFSFLSVAWGFLSDVDIHSERFRALGSARFTLGAVLGLASLHTYRGRLSYLPATTEPALPIPGHSLPRAKSELVLAPAPAPAATHSPLHRSVSDLPLPLPQPALVSPGSPEPLPDLSLNGGGPELTGDWGGAGDAPLSPDPLLPSSPNALKTAQLSPIAEGPPEMPASSGFLPPTHSAPEASTWGPVDHLLPPLGSPLPQDWVTIEGEFVLMLGILPSHLCADLMAAPHARFDDGVVHLCWVRSGISRAALLRILLAMEHGNHFSLGCPHLGYAAARAFRLEPLTPRGLLTVDGELVEYGPIQAQVHPGLATLLTGPAGQKPQA
notes: The open reading frames of mSPHK2 and hSPHK2 encode polypeptides of 617 and 618 amino acids, respectively; made in house; host or cells: HEK293 (ATCC CRL-1573), transient transfection; unpurified cytosol or whole lysate
B3: mSPHK2: murine sphingosine kinase type 2, polypeptide of 617 amino acids (SEQ ID NO 12) (protein)
chain: B2 chain with N252S, P510T, L548F

What was measured:
[1] = system: HEK293 cells; assay: SPHK activity in HEK293 cells transiently transfected with SPHK expression vectors (cytosol and particulate fractions); type: cell-based, human; conditions: 24 hours after transfection of HEK293 cells
Experimental: In FIG. 3A, HEK 293 cells were transiently transfected with an empty vector or with mSPHK2 or hSPHK2 expression vectors. After 24 hours, SPHK activity was measured in cytosol (open bars) and particulate fractions (filled bars). The data are means±S.D. Parental and vector-transfected cells had basal SPHK activities of 26 and 37 pmol/min/mg, respectively.
(§1) Human embryonic kidney cells (HEK293, ATCC CRL-1573) and NIH 3T3 fibroblasts (ATCC CRL-1658) were cultured as described in Olivera, A., Kohama, T., Edsall, L. C., Nava, V., Cuvillier, O., Poulton, S., and Spiegel, S., J. Cell Biol., 147 (1999) 545-558. HEK293 cells were seeded at 6×10^5 per well in poly-L-lysine coated 6 well plates. After 24 hours, cells were transfected with 1 μg of vector alone or with vectors containing sphingosine kinase constructs and 6 μl of “Lipofectamine PLUS” reagent plus 4 μl of “Lipofectamine” reagent per well. One to three days after transfection, cells were harvested and lysed by freeze-thawing as described in Kohama, T., Olivera, A., Edsall, L., Nagiec, M. M., Dickson, R., and Spiegel, S., J. Biol. Chem., 273, (1998), 23722-23728. In some experiments, cell lysates were fractionated into cytosol and membrane fractions by centrifugation at 100,000×g for 60 minutes. SPHK activity was determined in the presence of sphingosine, prepared as a complex with 4 mg/ml BSA, and [g-32P] ATP in kinase buffer (Olivera, A. and Spiegel, S. in Methods in Molecular Biology, (Bird, I. M. ed.), (1998), Vol. 105, 233-242, Humana Press, Inc., Totowa, N.J.), containing 200 mM KCl, unless indicated otherwise. 32P-SPP was separated by TLC and quantified with a phosphoimager as previously described.

[2] = system: HEK293 cells; assay: Mass levels of SPP in HEK293 cells after transfection with SPHK2; type: cell-based, human; conditions: HEK 293 cells after transfection
Experimental: Mass levels of SPP in HEK293 cells transfected with an empty vector (open bars) or with mSPHK2 (filled bars) or with hSPHK2 (hatched bars) were measured as described hereinbelow. The data are expressed as pmol/nmol phospholipid.
Cells were washed with PBS and scraped in 1 ml of methanol containing 2.5 μl concentrated HCl. Lipids were extracted by adding 2 ml chloroform/1M NaCl (1:1, v/v) and 100 μl 3N NaOH and phases separated. The basic aqueous phase containing SPP, and devoid of sphingosine, ceramide, and the majority of phospholipids, was transferred to a siliconized glass tube. The organic phase was re-extracted with 1 ml methanol/1M NaCl (1:1, v/v) plus 50 μl 3N NaOH, and the aqueous fractions were combined. Mass measurement on SPP in the aqueous phase and total phospholipids in the organic phase were measured exactly as described in Edsall, L. C., Pirianov, G. G., and Spiegel, S., J. Neurosci., 17, (1997) 6952-6960; Edsall, L. C., and Spiegel, S., Anal. Biochem., 272, (1999) 80-86).

[3] = substrate: CCCCCCCCCCCCC/C=C/[C@@H](O)[C@@H](N)CO; assay: SPHK activity assay with recombinant mSPHK2 (cytosol/lysates of transfected HEK293 cells, [g-32P]ATP, TLC); type: biochemical, mouse; conditions: other: recombinant SPHK2
Experimental: HEK293 cells were seeded at 6×10^5 per well in poly-L-lysine coated 6 well plates. […] SPHK activity was determined in the presence of sphingosine, prepared as a complex with 4 mg/ml BSA, and [g-32P] […] 32P-SPP was separated by TLC and quantified with a phosphoimager as previously described.

[4] = molecular target: T1, mSPHK2 (Mus musculus, UniProt Q9JIA7); assay: as above; type: biochemical; conditions: cytosolic activity, kinase buffer of adjusted pH
T1 construct: The open reading frames of mSPHK2 and hSPHK2 encode polypeptides of 617 and 618 amino acids, respectively; made in house; host or cells: HEK293 (ATCC CRL-1573), transient transfection; unpurified cytosol or whole lysate
T1 sequence (Q9JIA7 1-617): B2 chain
Experimental: Lanes: 1, D-erythro-sphingosine (“D-erythro-Sph”); 2, D-erythro-dihydrosphingosine (“D-erythro-DHS”); 3, D, L-threo-DHS; 4, N,N-dimethylsphingosine (“DMS”); 5, C2-ceramide; 6, C16-ceramide; 7, diacylglycerol; 8, phosphatidylinositol; 9, phytosphingosine. Data are expressed as percentage of phosphorylation of D-erythro-Sph.
SPHK activity in HEK293 cell lysates after transfection as in FIG. 4A was measured with 10 μM D-erythro-sphingosine in the presence of increasing concentrations of DMS.
SPHK activity was measured with varying concentrations of D-erythro-sphingosine in the absence (open circles) or presence of 10 μM (filled squares) or 20 μM DMS (filled triangles).
FIG. 4D are Lineweaver-Burk plots.
In FIGS. 5B and 5C, the SPHK activity in HEK293 cell lysates was measured 24 hours after transfection with mSPHK1 (FIG. 5B) or mSPHK2 (FIG. 5C) in the absence or presence of increasing concentrations of NaCl (open squares) or KCl (filled circles).
FIG. 5E are Lineweaver-Burk plots of data from FIG. 5D.
HEK293 cells were transfected with mSPHK1a (open circles) or mSPHK2 (filled circles) and the activities of each in cell lysates were measured after 24 hours in the presence of the indicated concentrations of Triton X-100 (FIG. 6A) or BSA (FIG. 6B).
HEK293 cells were transfected with mSPHK1a (circles) or mSPHK2 (triangles) and the activities of each in cell lysates were measured after 24 hours in the presence of the indicated concentrations of phosphatidylserine (filled symbols) or phosphatidylcholine (open symbols). Data are expressed as percentage of control activity measured without any additions.
as §1

Row | Molecule | increase of in vitro SPHK activity over basal levels [1] | increase in SPP [2] | Km [3] | pH of optimal activity [4]
1 | B1 | 35 fold | 3.3 fold | – | –
2 | B2 | – | – | 3.4 µM | –
3 | B3 | 20 fold | 2.2 fold | – | 7.5

Source: patent publication US6800470B2, “Mammalian sphingosine kinase type 2 isoforms, cloning, expression and methods of use thereof” (Sankyo Company, Ltd., priority 2000, dated 2004)
